From the DeepSol protein solubility set

Experiment: soluble on expression in E. coli; label from the status in PepcDB or PDB records

MGSDKIHHHHHHMEFTKKSKLKNMYVNMNVARMLSKINEYKGRQLLYKKQPKEILENLEKKSLVDCSESTYIGNQRDSSNFNLEKLISNEVTPRSREELSIVEYRDVVKTINSAYESIPISSQTILELHGYLYKFSSTRGGSYKSDNDFIEHNLKPSEFISTDSSVNKVEKAVEEICEAYNTLIEEDEIDILILISAFVLDFILIHPFKEGNIKMARVLILLLLNKNGYEVGRYISLGKIFDDSSYEYYSNLNYLKASIGSEKADMNAWIEYFLETILTAYEKLDDSLNISDKKRQTKTSRIEKIINSTLGYFTKEDIRDLCPDIPEPTINRVFNNLRKQDKIEVVARGRSAKWKKKY
soluble on expression in E. coli: not soluble

MDCLNIEELTRIIIKEIRDYEEKEGVKSRRKIEVPINVSARHVHLSEEHMEALFGKGYTLTPIRDLMQPGEFAAKETVIIVGPKGILPSVRILGPARKRTQVEVSKTDCYTLGIEAQVRDSGNHEGTPGCIIVGPMGAVKLEEGVIVAMRHVHMPKNLAEKIGIKDKNLLKVEVGEERKLIFENVLARVSEKFVLEMHVDTDEANAAGIKNQAKGYILL
soluble on expression in E. coli: not soluble

MNKRNTQQRRHSIISILNEQGEVSVDELSLRFETSEVTIRKDLAELEKTGLLLRRYGGAVAIPDEVTQQFSAKIAPNKLSIAKAAAQLIKDHNRIIIDSGTTTSGLIAELNQKRGLVVMTNALHLANAIHELENEPTLLMTGGTWDPHSESFQGQVAEQVLRSYNFDQLFIGADGIDLARGTTTFNELTGLSKVMAEVSREVIVMVDSDKIGKRIPNLELPWSKISVLVTDARIEESALKQITEQGVKVILAPYSPLEHHHHHH
soluble on expression in E. coli: soluble

MDFVSEMNKILQMELEQFKEFIQKKLEEDKNYLEKLFWLPNGSQMTVLNYLIEQYSEPKLGIDDANRDLLAKIDFVLHEAKDVNVGEPLHQAIVAGKISLALHLLGVDENNFTPGESEKTDVLSILSKVRKKIEESFNHVKRCFFDVDKRDGYGRTLLSLALDAKRQELLIAILARNPIVHATTLRSSAYVPFQPIHQAVVLDYAEGITLLASMGAQLTNPLGSMRDTPVILAARLGKINALAALLELPTQSLSLESENNHLFEDKQTGHTAVEELCERMANENDKADALRGIAMLICRGAEPPRNEKMRNLLSSNRVAFLKAVSTYLADKPQLVDAFVERCHLRESALHNIVYADHSWGSSIRHLLGVPSEAALIVEELVTRKYSDPSFASENVSSLSTTATENLRSERNPLKLYAEFVRRYTQAYDSQMITNRWSTMRWMIAEGNCDWDTVVRYSKNHPTSRTRIVLNEMFNPIPRVHEDIESQQSSPRVVLK
soluble on expression in E. coli: not soluble

MLAQLTISNFAIVRELEIDFHSGMTVITGETGAGKSIAIDALGLCLGGRAEADMVRTGAARADLCARFSLKDTPAALRWLEENQLEDGHECLLRRVISSDGRSRGFINGTAVPLSQLRELGQLLIQIHGQHAHQLLTKPEHQKFLLDGYANETSLLQEMTARYQLWHQSCRDLAHHQQLSQERAARAELLQYQLKELNEFNPQPGEFEQIDEEYKRLANSGQLLTTSQNALALMADGEDANLQSQLYTAKQLVSELIGMDSKLSGVLDMLEEATIQIVEASDELRHYCDRLDLDPNRLFELEQRISKQISLARKHHVSPETLPQYYQSLLEEQQQLDDQADSQETLALAVTKHHQQALETARALHQQRQHYAEELAQLITDSMHALSMPHGQFTIDVKFDEHHLGADGADRIEFRVTTNPGQPMQPIAKVASGGELSRIALAIQVITARKMETPALIFDEVDVGISGPTAAVVGKLLRQLGESTQVMCVTHLPQVAGCGHQHYFVSKETDGAMTETHMQSLNKKTRLQELARLLGGSEVTRNTLANAKELLAA
soluble on expression in E. coli: not soluble

MGSDKIHHHHHHMERIDEILSQLTTEEKVKLVVGVGLPGLFGNPHSRVAGAAGETHPVPRLGIPAFVLADGPAGLRINPTRENDENTYYTTAFPVEIMLASTWNRDLLEEVGKAMGEEVREYGVDVLLAPAMNIHRNPLCGRNFEYYSEDPVLSGEMASAFVKGVQSQGVGACIKHFVANNQETNRMVVDTIVSERALREIYLKGFEIAVKKARPWTVMSAYNKLNGKYCSQNEWLLKKVLREEWGFDGFVMSDWYAGDNPVEQLKAGNDMIMPGKAYQVNTERRDEIEEIMEALKEGKLSEEVLDECVRNILKVLVNAPSFKGYRYSNKPDLESHAEVAYEAGAEGVVLLENNGVLPFDENTHVAVFGTGQIETIKGGTGSGDTHPRYTISILEGIKERNMKFDEELASTYEEYIKKMRETEEYKPRTDSWGTVIKPKLPENFLSEKEIKKAAKKNDVAVVVISRISGEGYDRKPVKGDFYLSDDELELIKTVSKEFHDQGKKVVVLLNIGSPIEVASWRDLVDGILLVWQAGQEMGRIVADVLVGKINPSGKLPTTFPKDYSDVPSWTFPGEPKDNPQRVVYEEDIYVGYRYYDTFGVEPAYEFGYGLSYTKFEYKDLKIAIDGETLRVSYTITNTGDRAGKEVSQVYIKAPKGKIDKPFQELKAFHKTKLLNPGESEEISLEIPLRDLASFDGKEWVVESGEYEVRVGASSRDIRLRDIFLVEGEKRFKP
soluble on expression in E. coli: not soluble

MKSYLNLKEEVWDKETCSGCGACVSVCPTENIYFKQQSPVQFDCDECACIIVPTENGESPISAEFCKVTLYDVNCGACYNACPRTKERHIFNLEKVPGRVIENYKAKSTLETKNIQSGGVVTAILANAFDEDLIDGAIVMMEDKWTMDPKSYLATSKEDVLKTAGSRYNWNVPILEVLKEAVMVKKLNKIAVVGTPCVINAVYQMMATNNDLVEPFKKAIRLKISLFCFETFDYDKMLKKLKEVEVNPWDIKKMEIDKGKLIVSTIHGNVFNFKIDEMDEYVRKGCKVCRDFTGISSDISVGNVGTPEGYSTVLVRNKWGKGFFDRAVINGYVSVEGEASIDPVISLSKKKMERKDIEFLEHHHHHH
soluble on expression in E. coli: not soluble

MGSDKIHHHHHHSDSFTYPSAYGWWSVDNGYDVNNVNSRMVSGDFNGDGKADVATFYDYGNGASRIHVFTSNGSSFDYASAYGWWNTPSGYDPKRITAVVAGDFNGDHKDDIAVIYNYGNSETRIHVFISTGSSFSYTDCNGWWNATGYDAGRITGAVAGDFNGDGKSDIATMYDYGGGETRIHVFTSTGSSFTYTGANGWWNSTGYDSNRVKGRVVAGDFNGDGKTDIAAMYDYGGSESRIHVFLSTGDSFKYTGANGWWSTTGYDANKVTGRLVAGDFNGDGKADIAAMYDYGNAETRIHVLTSNGDSFTYTGANGWWNTTGYDANRVTGRVVAGDFNGDHKADIAAFYDYGSSASRIHVFTSNADSPESSKGAELVAYAESFLGVPYVWGGADPSGFDCSGLVQYCYEHFGVDLPRTTYDQVNCGTTVTDDLQPGDLLFFGSATSPTHVAIYAGNSKMVEAPHTGANVRLVDIRSYFIAKRIFN
soluble on expression in E. coli: not soluble

MVAASKEFVFHHTFKDVSQLEDGDFFKSPEEIHYNAEWFILVIRTKDQLEAYLHCDNEKDDNVAWTVDAEFSLKIASSSGSYAMKFQKGCFDGFGLGWNDFVSWDSLTEDFLYDNSFTIEACVKITKMTGFSKDVLRSFDESEKRFSDVILVVGDEKFYVLKLFLASHSSYFNALFLGKFKEADQSEVTLQNIDPTDFQSLLEVLYGEPAIDDGTIDGVLLLAHMLDVTLAIRKCEEFLIEKSMKSMRELLKMANQYQLENLKVKFYFLKIPEN
soluble on expression in E. coli: not soluble

MHHHHHHSSGVDLGTENLYFQSMMQKLVVTRLSPNFREAVTLSRDCPVPLPGDGDLLVRNRFVGVNASDINYSAGRYDPSVKPPFDIGFEGIGEVVALGLSASARYTVGQAVAYMAPGSFAEYTVVPASIATPVPSVKPEYLTLLVSGTTAYISLKELGGLSEGKKVLVTAAAGGTGQFAMQLSKKAKCHVIGTCSSDEKSAFLKSLGCDRPINYKTEPVGTVLKQEYPEGVDVVYESVGGAMFDLAVDALATKGRLIVIGFISGYQTPTGLSPVKAGTLPAKLLKKSASVQGFFLNHYLSKYQAAMSHLLEMCVSGDLVCEVDLGDLSPEGRFTGLESIFRAVNYMYMGKNTGKIVVELPH
soluble on expression in E. coli: soluble

MGSDKIHHHHHHMTEATYNFAYLDEQTKRMIRRAILKGIAIPGYQVPFASREMPMPYGWGTGGVQVTASILGPDDTLKVIDQGSDDTTNAISIRKFFAKTAGVATTTATPDASVIQTRHRIPETPLHEGQVLVYQVPIPEPLRYLEPRETETRRMHALAEYGLMHVKLYEDIAKFGHIATAYAYPVKVAGRYVMDPSPTPKFDNPKMDNCPALQLFGAGREKRIYAIPPYTQVVSLDFEDHPFTRYRQDGCCALCGADDSYLDEIVTDNAGTRMFVCSDTDYCEGRRAQGHTGSETAPMESAHA
soluble on expression in E. coli: not soluble

MAGDPNSMPVLSIIACGMLEDELVHVLIRDCEIRQLIVVENNNISGFLRKLRSGGLVPRVISLDRVPMLLETGFSPGFKKISKMLMHFHFFRKMNEKIESGAGIKIDVVINLLRLGLHVDLELLKSEVYKNVREMAKFSDGILIFYGTCGHVLGGLERDFADLECPLFFLKDSSGEIVEDCISAALGGNDAYAGAMLECRGKGTIYLTPMWASSWKMLEKESGNRDLNNRYLKNSRYCLAAKIDSGLLYDPYFDRNVEDFALTFGMKIINMSGSSEVAEKSYLAARKAVLRKTAAALEHHHHHH
soluble on expression in E. coli: not soluble

MDLIPARIGLIYNPLGGWFRKHTARMQSLLATLPEIRQIQATDQIEFERAVTVVVEAKIGWLIVVGGDGTLQGVMSCLFECLPPDRWPEITIVPAGTTNMTALDLGMNGQAEQILSRIRQHLQRPGDMKQVRRP
soluble on expression in E. coli: not soluble

MGQDRGFGFPTQRLCSLSSLALSHLGKQDLNLVSKTCGDTTDMFSTRGSYQVSTQVSQSYFDGYCGWVHGSSHLQQQFLPPQNQCMKQVPLQVDGVISKAEEQCSQKRFLVFDQSGDQTTLLLASDIRKSFETLKQHACPDMKEELQRSNKDLFVCHGMQGNSEPDLKEDSEELNALLYSEDESGYCSEEDEVTSADHSPSIVVSGREDQKTFLGSYGQPLNAKKRKILETSNESMRDAESSCGSCDNTRISFLKRSKLSSNKIGEEKIFETVSLLRSVVPGEELVDPILVIDRAIDYLKSLKMEAKNREA
soluble on expression in E. coli: soluble

YLASDGKTIIMVGRNNLQNEELTFKIAKKGELWFHAKDIPGSHVVIKDNLNPTDEVKTDAAELAAYYSKARLSNLVQVDMIDVKKLNK
soluble on expression in E. coli: not soluble

MGSDKIHHHHHHMSDTLTDSRIVYFYEAVRCGTIRAAADWLDVAPSAVSRQIGLLEKELDATLVERHARGVTPTDAGRCVIEYFREQLAHRDDLISRLQELRGLKTGQVSLVLGEGFVSDLLAGPMQQFCRQFPGIRVNLDVGSTNDVIRKISNDEGEIGLVYNPPAEPKLVSRASKRQPMMAIVGPDFPRRSHKVLTVQQLATYPMAATHPSYGTRQMMEAVEYAERVRLAPIITTNSFAILKEFVKSGLGISVMPAFAVAAELQAKELFAIEIAHPILENAEAHMVTRVGRKLSVAANKMLQMMTGQMRAFR
soluble on expression in E. coli: not soluble

MAHHHHHHMSVFAAARQRAAHYANRNPLFAKLNKTHLEYFNCVLREQCPKNKKPGRMLTDPNKIVSFNRDWMNQVEGECPVVLLPTSTQQVAAILRYCQSEKIGIVPQCGNTGLVYGSSALHDEVILSLREMNGDPVVSPQTMSTEAEAGVILQQLQEAAKTHDLLVPITMGSKGSAQIGGAVSTNAGGIHFARYGSMHANVLGLEVVTAQGEVLDMMSTLRKDNAGYDMKHLFIGSEGTLGVVTRVSLKLYPFPRSTQLALFRLTTFESVLELYRLAQEHLSECLSAFEVVDGESLSVTPQEELPFTRTSKSDTFRAGQDFTSAYFCVMVETNGSNAEHDMEKLSRFVEAAECNPRCVSKGDLGESFEPVLSQSLAQTAQLWNLREDTPVRLASAGTIYIFDVSFPLDKFYDIVLHFRKMIYKNGGFDPDEVLVVGYGHFGDGNIHLNVVDRTRKHSDALDAVLFPAVYEFCAAHSGSISAEHGVGVQKKAYLGFSRKPEVIALMRTLKRTMDPNGILNPYKVID
soluble on expression in E. coli: soluble
